From patent US20240239881A1
pEC50, pIC50, pKd: −log10 of the molar value. Where two headings read alike, the source gives them in different places.

What was measured:
[1] = target: recombinant biotinylated hAngiopoietin-2 protein (R&D, Cat. No.: BT623B/CF) (human) (UniProt O15123); experiment: blocking ELISA: antibody titrated against biotinylated hAng2 (300 ng/ml final); blocked binding to coated hTie2 protein; Avidin-HRP detection (fit of a flat control curve)
[2] = target: recombinant biotinylated hAngiopoietin-2 protein (R&D, Cat. No.: BT623B/CF) (human) (UniProt O15123); experiment: ELISA: biotin Ang2 (R&D BT623B/CF) captured on coated streptavidin (SA), antibody titrated, anti-human IgG-HRP, OD450-OD620, GraphPad fit (fit of a flat control curve)
[3] = target: Human ang2 protein (Sino Biological, Cat No.: 10691-H08H) (human) (UniProt O15123); experiment: ELISA: human ang2 protein (Sino Biological 10691-H08H) coated at 0.25 ug/ml, antibody titrated, HRP-conjugated secondary antibody, OD450-OD620, GraphPad fit (fit of a flat control curve)
[4] = target: recombinant biotinylated hAngiopoietin-2 protein (R&D, Cat. No.: BT623B/CF) (human) (UniProt O15123); experiment: blocking ELISA: antibody titrated against biotinylated hAng2 (300 ng/ml final); blocked binding to coated hTie2 protein; Avidin-HRP detection (fit of a flat control curve); remark: listed apart in the source
[5] = target: Cynomolgus monkey Ang2 C-terminal domain (Lys274-Phe495) (cynomolgus monkey); experiment: ForteBio BLI, antibody on AHQ sensor, 100 nM antigen, 1:1 model
Chain of Cynomolgus monkey Ang2 C-terminal domain (Lys274-Phe495) (cynomolgus monkey) (chain, as listed by the source, form in doubt): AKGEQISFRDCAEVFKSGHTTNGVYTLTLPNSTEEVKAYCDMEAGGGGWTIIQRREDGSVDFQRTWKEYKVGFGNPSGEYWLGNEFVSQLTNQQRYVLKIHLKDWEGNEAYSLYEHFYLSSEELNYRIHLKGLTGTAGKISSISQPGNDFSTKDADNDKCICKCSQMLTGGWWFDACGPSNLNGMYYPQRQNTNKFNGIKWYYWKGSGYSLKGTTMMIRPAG

Chain of recombinant biotinylated hAngiopoietin-2 protein (R&D, Cat. No.: BT623B/CF) (human) (O15123 19-496 limits assumed): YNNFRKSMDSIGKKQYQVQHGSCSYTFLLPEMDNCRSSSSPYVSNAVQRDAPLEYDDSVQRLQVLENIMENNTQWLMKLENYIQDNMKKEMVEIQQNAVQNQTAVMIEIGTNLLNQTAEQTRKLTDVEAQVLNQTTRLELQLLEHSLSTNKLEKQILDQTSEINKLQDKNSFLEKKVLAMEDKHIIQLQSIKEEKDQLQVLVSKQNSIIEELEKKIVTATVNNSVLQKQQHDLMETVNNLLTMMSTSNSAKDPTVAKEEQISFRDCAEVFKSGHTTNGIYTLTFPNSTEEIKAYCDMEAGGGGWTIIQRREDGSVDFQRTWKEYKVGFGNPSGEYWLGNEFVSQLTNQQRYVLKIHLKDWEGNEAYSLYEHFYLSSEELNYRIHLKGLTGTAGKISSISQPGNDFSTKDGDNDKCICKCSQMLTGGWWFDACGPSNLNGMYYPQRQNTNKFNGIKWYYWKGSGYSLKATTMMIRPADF
Chain of Human ang2 protein (Sino Biological, Cat No.: 10691-H08H) (human) (O15123 19-496 limits assumed): as above

| Substance | pIC50 [1] | pEC50 [2] | pEC50 [3] | pIC50 [4] | pKd [5] |
| --- | --- | --- | --- | --- | --- |
| IgG (antibody) | 7.77 | 11.09 | 7.78 | 7.61 | – |
| Nesvacumab (Regeneron) (antibody) | – | – | – | – | 8.98 |
